17 variants from the supplement of paper PMC7125110 can be followed below.

The chains are these.
B1: glmS ribozyme (parent)
chain: AUAAAAGCGCCAGAACUACAGAAAUGUAGUUGACGAGGAGGAGGUUUAUCGAAUUUUCGGCGGAUGCCUCCAAA

± gives the standard error. Fewer inactive variants are shown than the library holds. A value given as a limit tells only on which side of the number the result lay.

Common to all, as to settings: with glucosamine-6-phosphate
In series [1] the parent is B1. The series can be described thus: self-cleavage kobs at 160 uM GlcN6P; higher = faster cleavage; RNA array. In outline:
(§1)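 Sequenced MiSeq chips were the platform: E. coli RNA polymerase transcribed barcoded ribozyme variants on them in situ, and a hybridised Cy3 probe tracked these at 37 °C. After glucosamine-6-phosphate (40 μM to 10 mM) in HEPES/KCl/Mg(OAc)2 buffer was flowed in, tiles were imaged over ~14 h. Signals normalised to baseline and to non-cleaving reference variants were reduced to per-tile medians and fit to one- or two-exponential decays to obtain kobs. kcat and KM were derived through weighted Michaelis–Menten fits across concentrations.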

In series [2] the parent is B1. The series can be described thus: self-cleavage kobs at 640 uM GlcN6P; higher = faster cleavage; RNA array. In outline:
as §1

Series [3] covers variants of B1. The series can be described thus: self-cleavage kobs at 2500 uM GlcN6P; higher = faster cleavage; RNA array. In outline:
as §1

In series [4] the parent is B1. Kind of series: self-cleavage kobs at 10000 uM GlcN6P; higher = faster cleavage; RNA array. The method, boiled down:
as §1

Consider AUAAAAGCGCCAGGACUACAGAAAUGUAGUUGACGAGGAGGAGGUUUAUCGAAUUUUCGGGGGAUGCCUCCAAA, for which the “self-cleavage kobs at 160 uM GlcN6P” value with glucosamine-6-phosphate [1] was less than 1e-05 s⁻¹.
AUAAAAGCGGCAGAACUACAGAAAUGUAGUCGCCGAGGAGGAGGUUUAUCUAAUUUUCGGCGGAUGCCUCUAAA: the “self-cleavage kobs at 160 uM GlcN6P” value in the series with glucosamine-6-phosphate [1] was less than 1e-05 s⁻¹. Besides, in the series with glucosamine-6-phosphate [2], the “self-cleavage kobs at 640 uM GlcN6P” value was less than 1e-05 s⁻¹.
In the case of AUAAAAGCGCCAGAACUACAGAAAUGUAGUUGACGAGUAGGAAGUUUAUCGAAUUUUGGGCGGACGCCUCCAAA, the “self-cleavage kobs at 160 uM GlcN6P” value with glucosamine-6-phosphate [1] was less than 1e-05 s⁻¹.
AUAAAUGUGCCAGAACUACAGAAAUGUAGUUGACGAGGAGGAGGUUUAUCGAAUUUUCGGCGGAUGCCUUCAAA: the “self-cleavage kobs at 160 uM GlcN6P” value with glucosamine-6-phosphate [1] is less than 1e-05 s⁻¹. Moreover, the “self-cleavage kobs at 2500 uM GlcN6P” value with glucosamine-6-phosphate [3] was less than 1e-05 s⁻¹. In the series with glucosamine-6-phosphate [4], the “self-cleavage kobs at 10000 uM GlcN6P” value was less than 1e-05 s⁻¹.
On to AUAAAAGCGCCAGAACUACAGAAAUGUAGUUGACGAGGAGGAGGUUUAUGGAAUUUUCUGCGGAUGCCUCCAAA, for which, in the series with glucosamine-6-phosphate [1], the “self-cleavage kobs at 160 uM GlcN6P” value was determined as 7.49e-05 ± 1.3e-05 s⁻¹. Further, the “self-cleavage kobs at 640 uM GlcN6P” value in the series with glucosamine-6-phosphate [2] was determined as 0.000241 ± 8.6e-05 s⁻¹. In addition, the “self-cleavage kobs at 2500 uM GlcN6P” value with glucosamine-6-phosphate [3] worked out at 0.000355 ± 0.0001 s⁻¹.
On to AUAAAAGCGCCAGAACUACAGAAAUGUAGUUGCCGAAGAGGAGGUUUAUCGAAUUUUCGGCGCAUGCCUCCAAA, for which, in the series with glucosamine-6-phosphate [1], the “self-cleavage kobs at 160 uM GlcN6P” value was less than 1e-05 s⁻¹. The “self-cleavage kobs at 640 uM GlcN6P” value with glucosamine-6-phosphate [2] was less than 1e-05 s⁻¹. Moreover, the “self-cleavage kobs at 2500 uM GlcN6P” value with glucosamine-6-phosphate [3] is less than 1e-05 s⁻¹.
For the variant AUAAAAGCGCCAGAACUACAGAAAUGUAGUUGACGAGGAGGAGGUUUAUCGACUUAUCCGCGUAUGCCUCCAAA, the “self-cleavage kobs at 160 uM GlcN6P” value in the series with glucosamine-6-phosphate [1] is less than 1e-05 s⁻¹. Moreover, in the series with glucosamine-6-phosphate [2], the “self-cleavage kobs at 640 uM GlcN6P” value is less than 1e-05 s⁻¹. Further, in the series with glucosamine-6-phosphate [3], the “self-cleavage kobs at 2500 uM GlcN6P” value was less than 1e-05 s⁻¹.
Consider AUAAAAGCGCCGGCACUACAGAAAUGUAGUUGACGAGGAGGAGGUUUUUCGAAUUUUCGGCGGAUGCCUCCAAA, for which the “self-cleavage kobs at 160 uM GlcN6P” value with glucosamine-6-phosphate [1] was less than 1e-05 s⁻¹. Besides, the “self-cleavage kobs at 640 uM GlcN6P” value with glucosamine-6-phosphate [2] is less than 1e-05 s⁻¹. In addition, the “self-cleavage kobs at 2500 uM GlcN6P” value with glucosamine-6-phosphate [3] was less than 1e-05 s⁻¹.
With AUAAAAGCGCCAGAACUACAGAAAUGUAGUUGACGAGGAGGAGGUUUAUCGAAUUUUCGUCGGCUUCCUACAAA, the “self-cleavage kobs at 160 uM GlcN6P” value with glucosamine-6-phosphate [1] was less than 1e-05 s⁻¹.
For the variant AUAAAAGCGCCAGAACUACAGAAAUGUAGUUGACGAGGAGGAGGUUUCUAGGAUUUUCGGCGGAUGCCUCCAAA, in the series with glucosamine-6-phosphate [1], the “self-cleavage kobs at 160 uM GlcN6P” value is less than 1e-05 s⁻¹. Besides, the “self-cleavage kobs at 2500 uM GlcN6P” value with glucosamine-6-phosphate [3] is less than 1e-05 s⁻¹.
With AUAAAAGCGCCAGAACUACAGAAAUGUAGUUGACGAGUAGGUGGUUUAUCGAAUUUUCGGCGGAUGCCUCCAAA, the “self-cleavage kobs at 160 uM GlcN6P” value with glucosamine-6-phosphate [1] is less than 1e-05 s⁻¹. Further, the “self-cleavage kobs at 640 uM GlcN6P” value in the series with glucosamine-6-phosphate [2] is less than 1e-05 s⁻¹. The “self-cleavage kobs at 10000 uM GlcN6P” value with glucosamine-6-phosphate [4] was less than 1e-05 s⁻¹.
As for AUAAAAGCGCCAGAACUACAGAAAUGUAGUUGACGAGGAGGAGGUUUACCGACUUUUCGGCGGAUGCCUCCAAA, the “self-cleavage kobs at 160 uM GlcN6P” value with glucosamine-6-phosphate [1] was less than 1e-05 s⁻¹. Further, in the series with glucosamine-6-phosphate [2], the “self-cleavage kobs at 640 uM GlcN6P” value is less than 1e-05 s⁻¹. In the series with glucosamine-6-phosphate [3], the “self-cleavage kobs at 2500 uM GlcN6P” value was less than 1e-05 s⁻¹.
Take AUAAAAGCGCCAUAACUACAGAAAUGUAGUUGACGAGGAGGAGUUUUAUCGAAUUUUCGGCGGAUGCCUCCAAA: the “self-cleavage kobs at 160 uM GlcN6P” value in the series with glucosamine-6-phosphate [1] is less than 1e-05 s⁻¹.
For AUAAAAGCGCCAAAACUACAGAAAUGUAGUUGACGAGGAGGAGGUUUAUCGAAUUUUAGGCGGAUGCCUCCAAA, the “self-cleavage kobs at 160 uM GlcN6P” value with glucosamine-6-phosphate [1] came out at 5.76e-05 ± 2.1e-05 s⁻¹. The “self-cleavage kobs at 640 uM GlcN6P” value in the series with glucosamine-6-phosphate [2] worked out at 0.000121 ± 2.5e-05 s⁻¹. For the same variant, the “self-cleavage kobs at 2500 uM GlcN6P” value with glucosamine-6-phosphate [3] turned out to be 0.000307 ± 7.3e-05 s⁻¹.
For the variant AUAAAAGGGCCAGAACUACAGAAAUGUAGUUGACGAGGAGGAGGUUUAUCUAAUUUUCGGCGGUUGCCUCCAAA, the “self-cleavage kobs at 160 uM GlcN6P” value with glucosamine-6-phosphate [1] is less than 1e-05 s⁻¹. In addition, the “self-cleavage kobs at 640 uM GlcN6P” value with glucosamine-6-phosphate [2] is less than 1e-05 s⁻¹.
AUAAAAGCGCCAGAACUACAGAAAUGUAGUUGACGAGGAGGACGUUUAUCGAAUAUUCGGCGGAUGCCUCCAAA: the “self-cleavage kobs at 160 uM GlcN6P” value with glucosamine-6-phosphate [1] is less than 1e-05 s⁻¹. Also, the “self-cleavage kobs at 640 uM GlcN6P” value with glucosamine-6-phosphate [2] is less than 1e-05 s⁻¹.
On to AUAAAAGCGCCAGAACUACAGAAAUGUAGUUGACGAGGACGAGGUUUAUCGAUUUUUCGGCGGAUGCCUUCAAA, for which the “self-cleavage kobs at 160 uM GlcN6P” value with glucosamine-6-phosphate [1] was 9.81e-05 ± 3.6e-05 s⁻¹. Besides, the “self-cleavage kobs at 640 uM GlcN6P” value with glucosamine-6-phosphate [2] stood at 9.65e-05 ± 2.1e-05 s⁻¹. The “self-cleavage kobs at 2500 uM GlcN6P” value with glucosamine-6-phosphate [3] turned out to be 0.000268 ± 5.4e-05 s⁻¹.
